Reference: PMC3726324, “Characterization of the PAS domain in the sensor-kinase BvgS: mechanical role in signal transmission” (BMC Microbiology, 2013)
Residue numbers refer to the chain shown, from its start. In names and notes the source's numbering stands.

B1: N2C3 Asn608Ala (BvgS residues 573-720, N608A) (domain or fragment)
chain: AERALNDQLEFMRVLIDGTPNPIYVRDKEGRMLLCADAYLDTFGVTADAVLGKTIPEANVVGDPALAREMHEFLLTRVAAEREPRFEDRDVTLHGRTRHVYQWTIPYGDSLGELKGIIGGWIDITERAELLRELHDAKESADAANRAK
notes: numbering from the initiation Met of full-length BvgS; source: E. coli BL21 (DE3), pASK-IBA35+, soluble fraction; produced in very low amounts
B2: N2C3 Tyr596Ala + Asn631Ala (BvgS residues 573-720, Y596A + N631A) (domain or fragment)
chain: B1 chain with Y24A, A36N, N59A
notes: numbering from the initiation Met of full-length BvgS; source: E. coli BL21 (DE3), pASK-IBA35+, purified
B3: N2C3 Arg670Ala (BvgS residues 573-720, R670A) (domain or fragment)
chain: B1 chain with A36N, R98A
notes: as for B2
B4: N2C3 Asn608Ser (BvgS residues 573-720, N608S) (domain or fragment)
chain: B1 chain with A36S
notes: as for B2
B5: N2C3 Asp695Ala (BvgS residues 573-720, D695A) (domain or fragment)
chain: B1 chain with A36N, D123A
notes: as for B2
B6: N2C3 Cys607Ala (BvgS residues 573-720, C607A) (domain or fragment)
chain: B1 chain with C35A, A36N
notes: as for B2
B7: N2C3 His643Ala (BvgS residues 573-720, H643A) (domain or fragment)
chain: B1 chain with A36N, H71A
notes: as for B2

Assays:
[1] = molecular target: recombinant PASBvg protein N3C3 (BvgS residues 581-720) (Bordetella pertussis) (UniProt P16575); assay: SEC; size-exclusion chromatography of the purified recombinant proteins; data not shown
[2] = molecular target: recombinant PASBvg protein N2C2 (BvgS residues 573-714) (Bordetella pertussis) (UniProt P16575); assay: as above
[3] = molecular target: recombinant PASBvg protein N2C3 (BvgS residues 573-720) (Bordetella pertussis) (UniProt P16575); assay: native MS; ESI-Q-TOF, positive ion mode, native conditions; purified N2C3 at 10 uM in 27 mM ammonium acetate
[4] = molecular target: recombinant PASBvg protein N2C3 (BvgS residues 573-720) (Bordetella pertussis) (UniProt P16575); assay: SEC; size-exclusion chromatography of the purified recombinant proteins; data not shown
[5] = molecular target: recombinant PASBvg protein N3C2 (BvgS residues 581-714) (Bordetella pertussis) (UniProt P16575); assay: as above
[6] = molecular target: the molecule itself; assay: not stated; oligomeric state of the purified or soluble N2C3 variants; method not named; not shown

Molecule	stoichiometry N [6]	also measured
recombinant PASBvg protein N3C3 (BvgS residues 581-720) (from UniProt P16575 581-720) (domain or fragment)		stoichiometry N [1]: 2
recombinant PASBvg protein N2C2 (BvgS residues 573-714) (from UniProt P16575 573-714) (domain or fragment)		stoichiometry N [2]: 2
recombinant PASBvg protein N2C3 (BvgS residues 573-720) (from UniProt P16575 573-720) (domain or fragment)		stoichiometry N [3]: 2; stoichiometry N [4]: 2
recombinant PASBvg protein N3C2 (BvgS residues 581-714) (from UniProt P16575 581-714) (domain or fragment)		stoichiometry N [5]: 2
B1	2	
B2	2	
B3	2	
B4	2	
B5	2	
B6	2	
B7	2	
